Test [1] has as its target recombinant CAIX extra-cellular domain (UniProt Q16790 38-414). Description: competitive ELISA (Friguet), soluble CAIX ECD against coated CAIX ECD. Here is the method: To determine the binding affinity of the anti-CAIX scFvs, competitive ELISA was performed. The CAIX ECD fragment proteins in 2-fold serial dilution (100-13 μg/ml) were pre-incubated with anti-CAIX scFvs (NAVICA9S1: 0.62 μg/ml, NAVICA9S2: 0.32 μg/ml,
NAVICA9L2: 0.16 μg/ml, NAVICA9L3: 0.32 μg/ml) at 1:1 volume ratio at room temperature for 1 hour. The mixtures were then added into ELISA plate coated with CAIX ECD fragment proteins (0.25 or 0.5 μg/well). After 1 hour incubation, the mouse anti-HA IgG (1:5,000) and HRP-conjugated rabbit anti-mouse IgG (1:10,000) were added as the secondary and third antibodies. Following the incubation and washing, 3,3′,5,5′-Tetramethylbenzidine (TMB) was added for color development, which was stopped by HCl and detected using an ELISA plate reader. The Kd values of scFvs were estimated and expressed by molarity (M) as described by Friguet et al. (J. Immunol. Methods, 77: 305-319, 1985). N/A: not available.
(In general: ELISA stands for enzyme-linked immunosorbent assay.)

The target of test [2] is recombinant CAIX fragment 2 (UniProt Q16790 154-353). Nature of the test: binding to recombinant CAIX fragments, epitope mapping.
The target of test [3] is T1, recombinant CAIX fragment 3 (UniProt Q16790 228-414, limits assumed).
T1 construct: domain: fragment 3(F3); Expressed in E. coli from pET-21a(+) or pET-32a(+); also called F3; CAIX F3
Described as above.

Where a chain is given by its changes, count along the chain named.

B1: NAVICA9S1 (scFv, V domains shown)
VH: AVTLDESEGGLQTPGGALSLVCKASGFTFSSYAMNWVRQAPGKGLEFVAGITNTGSSAGYGAAVKGRATISRDNGQSTVRLQLNNLRAEDTATYFCTKSYGGWCDHACAPDDIDTWGHGTEVIVSS
VL: ALTQPSSVSANPGETVKITCSGGGKNYGWYQQKSPGSAPVTVIYLNDKRPSNIPSRFSGSKSGSTHTLTITGVQAEDEAVYFCGSRDSSPTFGAGTTLTVL
notes: Chicken scFv from phage display, expressed in E. coli; also called anti-CAIX scFv NAVICA9S1; clone NAVICA9S1; not shown: linker; tags from the pComb3X vector (purified on Ni2+ Sepharose, detected with anti-HA)
With B1, the dissociation constant (Kd) – broadly, a measure of binding affinity in units of concentration – in test [1] amounted to 64.3 nM.

B2: NAVICA9S2 (scFv, V domains shown)
VH: AVTLDESGGGLQTPRGALSLVCKASGFTFSSFNMFWVRQAPGKGLEYVAAISSDGSRSRYGSAVQGRATISRDNGQSTVRLQLNSLRAEDTGTYYCAKRPYSGCTSNNFCFNAAYIDVWGHGTEVIVSS
VL: ALTQPSSVSANLGETVEITCSGSSGSYGWYQQKSPGSAPVTVIYYNDKRPSDIPSRFSGSKSGSTGTLTITGVQAEDEAVYYCGSADRSGAGIFGAGTTLTVL
notes: Chicken scFv; also called anti-CAIX scFv NAVICA9S2; clone NAVICA9S2; not shown: linker; tags from the pComb3X vector (purified on Ni2+ Sepharose, detected with anti-HA)
As for B2, the dissociation constant (Kd) in test [1] turned out to be 11.5 nM.

B3: NAVICA9L2 (scFv, V domains shown)
VH: AVTLDESGGGLQTPGGGLSLVCKASGFTFSSYAIQWVRQAPGKGLEWVAGISDDGSWTGYGAAVKGRATISRDNGQSTMRLQLNNLRAEDTGIYYCAKGAGTGYCANRSFGCASTIDAWGHGTEVIVSS
VL: B2 VL with S24R, D47V
notes: Chicken scFv; also called anti-CAIX scFv NAVICA9L2; clone NAVICA9L2; not shown: linker; tags from the pComb3X vector (purified on Ni2+ Sepharose, detected with anti-HA)
On to B3, for which the binding result in test [2] and in test [3] was “no binding” throughout. In addition, the Kd in test [1] came out at 140 nM.

B4: NAVICA9L3 (scFv, V domains shown)
VH: B2 VH with R15G
VL: B2 VL
notes: Chicken scFv; also called anti-CAIX scFv NAVICA9L3; clone NAVICA9L3; not shown: linker; tags from the pComb3X vector (purified on Ni2+ Sepharose, detected with anti-HA)
With B4, the Kd in test [1] is 9.26 nM.

These data come from patent publication US20220049012A1 (NAVI BIO THERAPEUTICIS, published 2022).
